# Test results taken from the supplement of paper PMC9170038.
# Test system: MS2 coat protein
# Assay: apparent KD of MS2 coat protein; designed switch direction (-1 OFF switch, 1 ON switch): 1; higher = weaker reporter binding
# Method in brief: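 For each design, the apparent KD is the median over clusters of curves fitted to normalised cluster fluorescence. Clusters held RNA switches with common flanks, transcribed on Illumina chips by stalled E. coli RNA polymerase. These were titrated with SNAP-549-labelled MS2 coat protein, doubling from 0.7 or 1.5 nM to 3 µM, without input, with 200 uM small-molecule ligand, or with an oligonucleotide input.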
# [1] = Eterna round: R95, input ligand: FMN 200 uM
# [2] = Eterna round: R95, input ligand: microRNA oligo, concentration not stated
# [3] = Eterna round: R95, input ligand: none
# [4] = input ligand: microRNA oligo, concentration not stated
Sequence,apparent KD of MS2 coat protein [1] [nM],apparent KD of MS2 coat protein [2] [nM],apparent KD of MS2 coat protein [3] [nM],apparent KD of MS2 coat protein (input ligand: FMN 200 uM) [nM],apparent KD of MS2 coat protein [4] [nM],apparent KD of MS2 coat protein (input ligand: none) [nM]
UAAAUACAUGAGGAUCACCCAUGUCAAAAGACAUGAGGAUAUGUACAGACUUCGGUCUGUACAGAAGGCAUGAAAA [salish99_ss1_r3_095] (puzzle: Same State 1),43.6,708,890,,,
"UAACAGUACAAUUUAGAUCUACAUGAGGAUCACCCAUGUACUGAGGAUAUCAGCUCGAAUAGAGCUGAGAAGGCAGAAGAACUA [SSNG3/11-A1] (Eterna round: R96, puzzle: Same State NG 3)",,,,35.8,127,203
"UAACAGUACAAUUUAGAUCUACAUGAGGAUCACCCAUGUACUGAGGAUAUCAGCUCGAUUAGAGCUGAGAAGGCAGAAGAACUA [SSNG3/11-A2] (Eterna round: R96, puzzle: Same State NG 3)",,,,48.5,173,344
"UAAUGUUAGCGAGGAUAUCGUUUAUUGAAGUUACGAGAAGGCGCUCUUCUUACAUGAGGAUCACCCAUGUCUGUUUUGCAUGAU [JR_SSNG1_Sub068] (Eterna round: R96, puzzle: Same State NG 1)",,,,,50,
"UAAUGUUUGCGAGGAUAUCGUUUAUUGAAGUUACGAGAAGGCGCUCUUCUUACAUGAGGAUCACCCAUGUCUGUUUUGCAUGAU [JR_SSNG1_Sub069] (Eterna round: R96, puzzle: Same State NG 1)",,,,44.4,56.8,81.5
"UAAUUAAAGCAAGGAUAUCACGUCGAAUAGACGUGAGAAGGUGCUCCUUACAUGAGGAUCACCCAUGUAUAACAUGAAUAAUUA [SSNG1/10-B1] (Eterna round: R96, puzzle: Same State NG 1)",,,,166,702,741
"UAAUUAAGUCAAGGAUAUCACGUCGAAUAGACGUGAGAAGGUGACCAAUACAUGAGGAUCACCCAUGUAAUACAUGAAUAAUUA [SSNG1/12-B1] (Eterna round: R96, puzzle: Same State NG 1)",,,,27.7,35.8,45.9
"UAAUUAAGUCAAGGAUAUCACGUCGAUUAGACGUGAGAAGGUGAUUAAUACAUGAGGAUCACCCAUGUAAUACAUGAAUAAUUA [SSNG1/11-B2] (Eterna round: R96, puzzle: Same State NG 1)",,,,37.1,61.4,76.1
"UACAAACGCGGAGGAUAUGGGCGAGGCGCAGAGGUCUGCGUCAAAACAUGAGGAUCACCCAUGUCCCAGAAGGCCGCGCAAACU [Anorra] (Eterna round: R96, puzzle: Same State NG 2)",,,,16.3,73.8,56.1
"UACAAUCUAUCUGAGGAUAUCAUGAAAAAAACAUGAGGAUCACCCAUGUGCAGGAAAACUGCAUAUGAGAAGGCAGAUAGAUUGC [salish99_SS2_r3_008] (Eterna round: R96, puzzle: Same State 2)",,,,,458,
UACAAUCUAUCUGAGGAUAUCAUGAAAAAAACAUGAGGAUCACCCAUGUGCAGGAAAACUGCAUAUGAGAAGGCAGAUAGAUUGC [salish99_SS2_r3_008] (puzzle: Same State 2),34.1,806,1320,,,
"UACAAUCUAUCUGAGGAUAUCAUGAAAAAAACAUGAGGAUCACCCAUGUGCAGGAAAACUGCAUAUGAGAAGGCAGAUAGAUUGU [salish99_SS2_r3_006] (Eterna round: R96, puzzle: Same State 2)",,,,,585,
UACAAUCUAUCUGAGGAUAUCAUGAAAAAAACAUGAGGAUCACCCAUGUGCAGGAAAACUGCAUAUGAGAAGGCAGAUAGAUUGU [salish99_SS2_r3_006] (puzzle: Same State 2),32.4,971,1650,,,
UACAAUCUAUCUGAGGAUAUCAUGAAAUAAACAUGAGGAUCACCCAUGUGCAGGAAAACUGCAUAUGAGAAGGCAGAUAGAUUGA [salish99_ss2_r3_018] (puzzle: Same State 2),50.2,1130,1810,,,
UACAAUCUAUCUGAGGAUAUCAUGAAGAAAACAUGAGGAUCACCCAUGUGCAGGAUAACUGCAAAUGAGAAGGCAGAUAGAUUGG [Mat - Same State 2 - Mod - D4] (puzzle: Same State 2),12.9,17,24.6,,,
UACAAUCUAUCUGAGGAUAUCAUGAAUUACACAUGAGGAUCACCCAUGUGCAGGAAAACUGCAUAUGAGAAGGCAGAUAGAUUGU [salish99_ss2_r3_065] (puzzle: Same State 2),81,1060,1970,,,

Sequence,apparent KD of MS2 coat protein [1] [nM],apparent KD of MS2 coat protein [2] [nM],apparent KD of MS2 coat protein [3] [nM],apparent KD of MS2 coat protein (input ligand: FMN 200 uM) [nM],apparent KD of MS2 coat protein [4] [nM],apparent KD of MS2 coat protein (input ligand: none) [nM]
UACAAUCUAUCUGAGGAUAUCAUGAUUCUAACAUGAGGAUCACCCAUGUGCAGGAAAACUGCAUAUGAGAAGGCAGAUAGAUUGU [salish99_ss2_r3_072] (puzzle: Same State 2),67.7,33.3,148,,,
UACAAUCUAUCUGAGGAUAUCAUGUAUUAAACAUGAGGAUCACCCAUGUGCAGGAAAACUGCAUAUGAGAAGGCAGAUAGAUUGU [salish99_ss2_r3_064] (puzzle: Same State 2),428,41.9,168,,,
"UACAUACGCGGAGGAUAUGGGCGAGGCGCAGAGGUCUGCGUCAAAACAUGAGGAUCACCCAUGUCCCAGAAGGCCGCGUAAACU [Enisen] (Eterna round: R96, puzzle: Same State NG 2)",,,,15.7,51.3,73.4
UACCAACAUAUAGAACAAGCGUGCUCGUCACAUGAGGAUCACCCAUGUCUAAGCGCUGAACCUGCAUCCUCAGCGCC [Oniste] (puzzle: Sensor for hsa-mir-208a),78.5,26.5,85.9,,,
UAGACAAGCUUUAUGUUCUUCCUUUUCCUACAUGAGGAUCACCCAUGUAGUCUGUCGAUUGUGAGUGUAGUUGAGAU [JR_SHM208A_Sub025] (puzzle: Sensor for hsa-mir-208a),18.7,16,18.7,,,
UAGAGAGGAAGCGAGGAUAUCGUGGGAGGGACAUGAGGAUCACCCAUGUAUGAUGUUGAGAGGAACGAGAAGGCGCAGGAAAGUA [JR_SS2_Sub077] (puzzle: Same State 2),151,137,349,,,
UAGAGAGGAAGCGAGGAUAUCGUGUUAGGUACAUGAGGAUCACCCAUGUUUUAGGUAGAGGUAGGCGAGAAGGCGCAGGAGAGGA [JR_SS2_Sub091] (puzzle: Same State 2),24.9,29.2,24.4,,,
"UAGGAACAUGAGGAUCACCCAUGUACCUCAUAUGGAGAAACACAGGAUAUACUUAGCGAAAGAGAGUAGAAGGGUGAAGAGAGG [Default title] (Eterna round: R96, puzzle: Same State NG 3)",,,,19.4,30.8,32.6
"UAGGAACAUGAGGAUCACCCAUGUACCUCAUAUGGAGAAACACAGGAUAUGCUGAGGGAAACACAGCAGAAGGGUGAAGAGAGG [Default title] (Eterna round: R96, puzzle: Same State NG 3)",,,,22.7,27.1,32.8
"UAGGAGAGUAGAACAUGAGGAUCACCCAUGUAACCUCAUGUAUAGGAUAUGUUAAGAGUAGUAGAACAGAAGGAUAAGUAGGAU [Default title] (Eterna round: R96, puzzle: Same State NG 3)",,,,694,494,655
UAGUACAAGCUUUUUGCCCGUCUUAUUUAACAUGAGGAUCACCCAUGUAAGGUGAAAGUUAGAGAGUGGAGGUUGAA [JR_SHM208A_Sub049] (puzzle: Sensor for hsa-mir-208a),205,227,249,,,
UAGUACAUGCUUUUUGUCCGUCUUAGAUAACAUGAGGAUCACCCAUGUAAGGUGAAAGUUAUAUAGUUUAGGAAUAU [JR_SHM208A_Sub057] (puzzle: Sensor for hsa-mir-208a),136,323,178,,,
UAGUACAUGCUUUUUGUCUGUCUUAGAUCACAUGAGGAUCACCCAUGUUUGGUGAAAGUUAUAUAGUUUAUGACUAU [JR_SHM208A_Sub059] (puzzle: Sensor for hsa-mir-208a),114,96.8,162,,,
"UAGUGAUUGCAAGGAUAUGCUAGUUUUUAUUUGUGUUUGAUAACAAACAUGAGGAUCACCCAUGUGCAGAAGGUGCAAGAUAUG [JR_SSNG2_Sub078] (Eterna round: R96, puzzle: Same State NG 2)",,,,193,361,647
"UAGUGAUUGCAAGGAUAUGCUUGUGUUUUAUUUUUUUUAAUAUCUAACAUGAGGAUCACCCAUGUGCAGAAGGUGCUUGAUUUG [JR_SSNG2_Sub076] (Eterna round: R96, puzzle: Same State NG 2)",,,,,46.5,
"UAGUGCAUUAGAGGAUAUUCUUACGGAAACGGUAAGACAUGAGGAUCACCCAUGUUGUCACAUGGGAAGAAGGCUGAUGUGCUA [Omei SS(NG)2 Bv5] (Eterna round: R96, puzzle: Same State NG 2)",,,,82.6,104,510
